Measured values: paper PMC5771398, “Structural basis for assembly of the CBF3 kinetochore complex” (The EMBO Journal, 2017)
Where a chain is given by its changes, count along the chain named.

Experiments:
Conditions in all cases: protein: recombinant;recombinant;recombinant; tags: C-terminal TEV-cleavable double-StrepTactin tag (cleaved);;; chain copies: 2;1;1; blunt (annealed; only one strand given)
Cep3 (wild type, core …) [1] = biological target: T1, Cep3 (wild type, core complex);Ctf13;Skp1 (wild type) (Saccharomyces cerevisiae;Saccharomyces …, UniProt P40969;P35203;P52286 1-608;1-478;1-194, ||); assay: competition; EMSA, competitor 0.4-1.2 uM vs 0.1 uM N2; EMSA: complex (final buffer 10 mM HEPES, 300 mM NaCl, 1 mM DTT) mixed with DNA, 200 units lambda phosphatase and 1 mM MnCl2, 30 C 30 min, 0.8% agarose gel in TBE; binding pH not stated
T1 sequence (P40969 whole entry, chain 1 of 3): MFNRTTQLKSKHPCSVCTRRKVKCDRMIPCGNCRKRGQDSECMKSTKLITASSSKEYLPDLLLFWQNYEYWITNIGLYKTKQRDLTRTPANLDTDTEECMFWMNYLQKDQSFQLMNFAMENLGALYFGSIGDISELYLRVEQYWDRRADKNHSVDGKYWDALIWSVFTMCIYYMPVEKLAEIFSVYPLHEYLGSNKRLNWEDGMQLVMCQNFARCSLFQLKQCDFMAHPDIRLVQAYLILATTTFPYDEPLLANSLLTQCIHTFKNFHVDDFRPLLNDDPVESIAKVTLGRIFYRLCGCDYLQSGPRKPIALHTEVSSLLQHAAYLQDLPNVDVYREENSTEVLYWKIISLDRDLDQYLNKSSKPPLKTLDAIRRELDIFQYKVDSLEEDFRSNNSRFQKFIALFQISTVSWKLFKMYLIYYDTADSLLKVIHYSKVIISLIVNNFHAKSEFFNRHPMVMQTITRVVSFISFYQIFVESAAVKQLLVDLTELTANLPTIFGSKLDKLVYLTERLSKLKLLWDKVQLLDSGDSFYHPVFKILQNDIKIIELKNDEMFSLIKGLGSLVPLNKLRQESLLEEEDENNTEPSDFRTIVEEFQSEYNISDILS
T1 sequence (P35203 whole entry, chain 2 of 3): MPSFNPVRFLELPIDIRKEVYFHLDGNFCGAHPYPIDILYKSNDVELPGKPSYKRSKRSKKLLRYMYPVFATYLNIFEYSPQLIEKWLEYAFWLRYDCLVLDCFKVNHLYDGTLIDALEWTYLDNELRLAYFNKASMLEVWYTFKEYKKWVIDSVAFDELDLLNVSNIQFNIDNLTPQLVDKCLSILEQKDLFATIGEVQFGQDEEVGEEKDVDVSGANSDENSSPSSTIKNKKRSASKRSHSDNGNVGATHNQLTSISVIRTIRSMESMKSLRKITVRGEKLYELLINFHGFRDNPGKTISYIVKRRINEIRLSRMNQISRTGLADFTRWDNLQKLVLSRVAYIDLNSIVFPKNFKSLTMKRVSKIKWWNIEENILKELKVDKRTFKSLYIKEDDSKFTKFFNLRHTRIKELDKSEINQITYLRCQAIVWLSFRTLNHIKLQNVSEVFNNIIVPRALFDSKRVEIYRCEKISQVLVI
T1 sequence (P52286 whole entry, chain 3 of 3): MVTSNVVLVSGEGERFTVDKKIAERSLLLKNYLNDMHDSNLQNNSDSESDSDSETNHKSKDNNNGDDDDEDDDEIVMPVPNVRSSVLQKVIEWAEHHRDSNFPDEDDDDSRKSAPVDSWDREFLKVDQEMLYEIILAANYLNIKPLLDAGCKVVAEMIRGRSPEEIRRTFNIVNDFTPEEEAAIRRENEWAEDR

Cep3 (wild type, core …) [2] = biological target: Cep3 (wild type, core complex);Ctf13;Skp1delta (Saccharomyces cerevisiae;Saccharomyces …, UniProt P40969;P35203;P52286 1-608;1-478;1-194, ||del37-64); assay: EMSA; no lambda phosphatase; 1 uM protein, 0.1 uM DNA; EMSA: complex (final buffer 10 mM HEPES, 300 mM NaCl, 1 mM DTT) mixed with DNA, 200 units lambda phosphatase and 1 mM MnCl2, 30 C 30 min, 0.8% agarose gel in TBE; binding pH not stated
Cep3 (wild type, core complex);Ctf13;Skp1delta, sequence (P40969 whole entry, stated change not applied, chain 1 of 3, the tested form may be a part): as the sequence (P40969 whole entry, chain 1 of 3) above
Cep3 (wild type, core complex);Ctf13;Skp1delta, sequence (P35203 whole entry, stated change not applied, chain 2 of 3, the tested form may be a part): as the sequence (P35203 whole entry, chain 2 of 3) above
Cep3 (wild type, core complex);Ctf13;Skp1delta, sequence (P52286 other isoform, or with tags, fused parts or gaps ||del37-64 | mutant, chain 3 of 3): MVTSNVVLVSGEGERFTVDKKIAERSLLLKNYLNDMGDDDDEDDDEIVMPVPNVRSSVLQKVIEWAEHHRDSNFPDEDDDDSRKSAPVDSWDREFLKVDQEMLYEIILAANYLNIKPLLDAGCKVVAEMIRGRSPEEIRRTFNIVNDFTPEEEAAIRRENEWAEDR

[3] = biological target: Cep3 deltaGal4;Ctf13;Skp1 (wild type) (Saccharomyces cerevisiae;Saccharomyces …, UniProt P40969;P35203;P52286 47-608;1-478;1-194, ||); assay: EMSA; lambda phosphatase, 1 mM MnCl2; 0.3-1 uM protein; EMSA: complex (final buffer 10 mM HEPES, 300 mM NaCl, 1 mM DTT) mixed with DNA, 200 units lambda phosphatase and 1 mM MnCl2, 30 C 30 min, 0.8% agarose gel in TBE; binding pH not stated
Cep3 deltaGal4;Ctf13;Skp1 (wild type), sequence (P40969 47-608, stated change not applied, chain 1 of 3): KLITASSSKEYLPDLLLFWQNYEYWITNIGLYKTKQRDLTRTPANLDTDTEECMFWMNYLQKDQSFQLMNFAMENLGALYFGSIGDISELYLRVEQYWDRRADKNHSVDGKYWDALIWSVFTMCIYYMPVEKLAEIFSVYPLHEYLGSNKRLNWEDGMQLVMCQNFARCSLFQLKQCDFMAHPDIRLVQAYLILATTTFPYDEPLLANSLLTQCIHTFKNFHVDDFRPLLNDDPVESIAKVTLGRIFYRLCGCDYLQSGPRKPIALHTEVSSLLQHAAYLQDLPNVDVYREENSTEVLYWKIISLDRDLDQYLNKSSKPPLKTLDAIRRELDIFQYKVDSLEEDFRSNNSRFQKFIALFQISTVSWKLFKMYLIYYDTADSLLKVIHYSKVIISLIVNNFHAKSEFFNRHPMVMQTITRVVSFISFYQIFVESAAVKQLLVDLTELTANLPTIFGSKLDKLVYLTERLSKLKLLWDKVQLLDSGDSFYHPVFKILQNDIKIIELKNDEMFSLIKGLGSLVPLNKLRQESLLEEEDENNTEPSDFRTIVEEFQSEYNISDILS
Cep3 deltaGal4;Ctf13;Skp1 (wild type), sequence (P35203 whole entry, stated change not applied, chain 2 of 3, the tested form may be a part): as the sequence (P35203 whole entry, chain 2 of 3) above
Cep3 deltaGal4;Ctf13;Skp1 (wild type), sequence (P52286 whole entry, stated change not applied, chain 3 of 3, the tested form may be a part): as the sequence (P52286 whole entry, chain 3 of 3) above

Cep3 (wild type, core …) [4] = biological target: T1, Cep3 (wild type, core …); assay: EMSA; lambda phosphatase, 1 mM MnCl2; 0.3-1 uM protein, 0.1 uM DNA; EMSA: complex (final buffer 10 mM HEPES, 300 mM NaCl, 1 mM DTT) mixed with DNA, 200 units lambda phosphatase and 1 mM MnCl2, 30 C 30 min, 0.8% agarose gel in TBE; binding pH not stated
Cep3 (wild type, core …) [5] = biological target: T1, Cep3 (wild type, core …); assay: competition; EMSA, competitor 0.4-1.2 uM vs 0.1 uM N2; same effect as CCG mutant; EMSA: complex (final buffer 10 mM HEPES, 300 mM NaCl, 1 mM DTT) mixed with DNA, 200 units lambda phosphatase and 1 mM MnCl2, 30 C 30 min, 0.8% agarose gel in TBE; binding pH not stated

B1: 33 bp wild-type CEN3, unlabelled competitor (dsDNA)
DNA 1: AAATATTAGTGTATTTGATTTCCGAAAGTTAAA
DNA 2: TTTAACTTTCGGAAATCAAATACACTAATATTT
Cep3 (wild type, core …) [1]
  binding result: binds

B2: 33 bp CCG mutant CEN3 (dsDNA)
DNA 1: B1 DNA 1 with C22G, C23A, G24T
DNA 2: B1 DNA 2 with C10A, G11T, G12C
Cep3 (wild type, core …) [1]
  binding result: no binding

B3: 56 bp WT CEN3 (dsDNA)
DNA 1: TATTAGTGTATTTGATTTCCGAAAGTTAAAAAAGAAATAGTAAGAAATATATATTT
DNA 2: AAATATATATTTCTTACTATTTCTTTTTTAACTTTCGGAAATCAAATACACTAATA
Cep3 (wild type, core …) [2]
  binding result: binds
[3]
  binding result: no binding
Cep3 (wild type, core …) [4]
  binding result: binds

B4: 33 bp double mutant CEN3 (dsDNA)
DNA 1: AAATATTAGAACATTTGATTTGATAAAGTTAAA
DNA 2: TTTAACTTTATCAAATCAAATGTTCTAATATTT
Cep3 (wild type, core …) [5]
  binding result: no binding
